From PMC2756588

T1: Boi1, P38041
T1 sequence (P38041 1-86, looked up): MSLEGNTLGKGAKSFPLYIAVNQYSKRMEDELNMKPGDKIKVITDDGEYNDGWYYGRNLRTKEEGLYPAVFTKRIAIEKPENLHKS

T2: Bzz1-1, P38822
T2 sequence (P38822 478-572, looked up): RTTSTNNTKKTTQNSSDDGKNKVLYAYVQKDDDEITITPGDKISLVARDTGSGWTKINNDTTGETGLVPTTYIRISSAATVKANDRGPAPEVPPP

T3: Bud14, P27637
T3 sequence (P27637 247-328, looked up): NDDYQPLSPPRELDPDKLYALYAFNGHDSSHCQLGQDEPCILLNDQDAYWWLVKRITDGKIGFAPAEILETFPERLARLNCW

T4: Pin3, Q06449
T4 sequence (Q06449 53-122, looked up): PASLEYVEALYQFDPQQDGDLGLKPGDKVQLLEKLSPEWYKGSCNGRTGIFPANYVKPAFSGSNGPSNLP

T5: Cdc25, P04821
T5 sequence (P04821 50-136, looked up): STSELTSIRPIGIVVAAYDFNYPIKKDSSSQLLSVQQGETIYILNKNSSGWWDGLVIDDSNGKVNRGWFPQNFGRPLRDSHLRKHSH

T6: Nbp2, Q12163
T6 sequence (Q12163 103-180, looked up): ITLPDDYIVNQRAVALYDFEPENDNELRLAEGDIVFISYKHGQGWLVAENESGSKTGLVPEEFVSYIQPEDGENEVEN

T7: Lsb3, P43603
T7 sequence (P43603 385-451, looked up): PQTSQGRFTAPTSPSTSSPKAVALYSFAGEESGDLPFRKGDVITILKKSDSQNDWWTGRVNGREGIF

T8: Hse1, P38753
T8 sequence (P38753 208-285, looked up): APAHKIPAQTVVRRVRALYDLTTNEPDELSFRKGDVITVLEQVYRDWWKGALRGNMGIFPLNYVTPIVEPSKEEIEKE

T9: Sla1-2, P32790
T9 sequence (P32790 60-140, looked up): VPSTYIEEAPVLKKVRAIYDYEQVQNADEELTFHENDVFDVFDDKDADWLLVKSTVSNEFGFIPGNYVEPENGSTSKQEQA

T10: Sla1-3, P32790
T10 sequence (P32790 344-424, looked up): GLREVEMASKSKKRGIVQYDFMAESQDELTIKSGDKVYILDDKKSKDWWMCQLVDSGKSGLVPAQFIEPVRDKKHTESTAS

T11: Pex13, P80667
T11 sequence (P80667 295-386, looked up): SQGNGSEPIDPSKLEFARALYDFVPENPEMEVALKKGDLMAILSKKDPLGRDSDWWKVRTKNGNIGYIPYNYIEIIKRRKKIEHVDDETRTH

T12: Lsb1, P53281
T12 sequence (P53281 45-122, looked up): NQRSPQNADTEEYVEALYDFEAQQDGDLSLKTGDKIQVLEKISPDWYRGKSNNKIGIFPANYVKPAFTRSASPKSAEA

T13: Lsb4, P32793
T13 sequence (P32793 402-468, looked up): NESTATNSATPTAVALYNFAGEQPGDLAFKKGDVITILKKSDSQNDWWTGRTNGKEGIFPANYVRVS

T14: Hof1, Q05080
T14 sequence (Q05080 590-669, looked up): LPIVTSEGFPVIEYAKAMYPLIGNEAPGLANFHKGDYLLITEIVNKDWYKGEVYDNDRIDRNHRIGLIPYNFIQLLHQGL

T15: Myo5, Q04439
T15 sequence (Q04439 1072-1160, looked up): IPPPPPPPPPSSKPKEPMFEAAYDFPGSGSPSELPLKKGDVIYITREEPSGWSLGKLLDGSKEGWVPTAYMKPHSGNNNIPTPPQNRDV

T16: Boi2, P39969
T16 sequence (P39969 32-116, looked up): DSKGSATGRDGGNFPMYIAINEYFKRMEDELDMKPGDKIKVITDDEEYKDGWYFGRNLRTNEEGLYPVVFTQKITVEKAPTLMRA

T17: Cyk3, Q07533
T17 sequence (Q07533 1-83, looked up): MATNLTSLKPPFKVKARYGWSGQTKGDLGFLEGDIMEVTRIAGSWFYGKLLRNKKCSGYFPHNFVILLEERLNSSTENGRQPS

T18: Bbc1, P47068
T18 sequence (P47068 1-78, looked up): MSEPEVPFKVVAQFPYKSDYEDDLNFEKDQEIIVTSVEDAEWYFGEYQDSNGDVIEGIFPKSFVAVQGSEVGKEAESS

T19: Abp1, P15891
T19 sequence (P15891 535-592, looked up): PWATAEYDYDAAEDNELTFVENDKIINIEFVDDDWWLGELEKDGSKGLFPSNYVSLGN

T20: Fus1, P11710
T20 sequence (P11710 432-512, looked up): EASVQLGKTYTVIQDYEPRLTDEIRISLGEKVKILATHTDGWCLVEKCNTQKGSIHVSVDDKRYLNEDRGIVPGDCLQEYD

T21: Bzz1-2, P38822
T21 sequence (P38822 568-633, looked up): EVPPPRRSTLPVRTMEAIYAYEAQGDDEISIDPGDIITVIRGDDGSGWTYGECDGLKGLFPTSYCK


How the values were obtained:
Experiment in all cases: SPOT array
Bem1-2, P29366 = details: median of control spots 4347
Sequence of Bem1-2, P29366 (P29366 139-227): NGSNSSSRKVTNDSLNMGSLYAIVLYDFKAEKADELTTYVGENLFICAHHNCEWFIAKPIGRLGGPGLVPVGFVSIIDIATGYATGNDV

Boi1, P38041 = target: T1, Boi1, P38041; details: median of control spots 1162
Rvs167, P39743 = details: median of control spots 2707
Sequence of Rvs167, P39743 (P39743 419-482): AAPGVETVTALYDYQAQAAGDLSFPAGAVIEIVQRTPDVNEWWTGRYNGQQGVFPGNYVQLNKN

Bzz1-1, P38822 = target: T2, Bzz1-1, P38822; details: median of control spots 4446
Bud14, P27637 = target: T3, Bud14, P27637; details: median of control spots 956
Pin3, Q06449 = target: T4, Pin3, Q06449; details: median of control spots 2171
Cdc25, P04821 = target: T5, Cdc25, P04821; details: median of control spots 969
Nbp2, Q12163 = target: T6, Nbp2, Q12163; details: median of control spots 357
Lsb3, P43603 = target: T7, Lsb3, P43603; details: median of control spots 406
Hse1, P38753 = target: T8, Hse1, P38753; details: median of control spots 1727
Sla1-2, P32790 = target: T9, Sla1-2, P32790; details: median of control spots 712
Sla1-3, P32790 = target: T10, Sla1-3, P32790; details: median of control spots 5475
GST = details: median of control spots 978
Pex13, P80667 = target: T11, Pex13, P80667; details: median of control spots 1341
Bem1-1, P29366 = details: median of control spots 4282
Sequence of Bem1-1, P29366 (P29366 55-141): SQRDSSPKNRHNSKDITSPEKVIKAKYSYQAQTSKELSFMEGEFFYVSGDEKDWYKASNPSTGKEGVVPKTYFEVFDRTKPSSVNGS

Lsb1, P53281 = target: T12, Lsb1, P53281; details: median of control spots 388
Lsb4, P32793 = target: T13, Lsb4, P32793; details: median of control spots 397
Myo3, P36006 = details: median of control spots 468
Hof1, Q05080 = target: T14, Hof1, Q05080; details: median of control spots 4086
Myo5, Q04439 = target: T15, Myo5, Q04439; details: median of control spots 471
Boi2, P39969 = target: T16, Boi2, P39969; details: median of control spots 1161
Cyk3, Q07533 = target: T17, Cyk3, Q07533; details: median of control spots 1451
Bbc1, P47068 = target: T18, Bbc1, P47068; details: median of control spots 796
Abp1, P15891 = target: T19, Abp1, P15891; details: median of control spots 935
Fus1, P11710 = target: T20, Fus1, P11710; details: median of control spots 1200
Sho1, P40073 = details: median of control spots 1148
Sequence of Sho1, P40073 (P40073 287-367): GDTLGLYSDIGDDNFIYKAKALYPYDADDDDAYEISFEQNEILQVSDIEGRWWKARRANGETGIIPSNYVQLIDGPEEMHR

Bzz1-2, P38822 = target: T21, Bzz1-2, P38822; details: median of control spots 4538

Binder	SPOT intensity (Bem1-2, P29366)	SPOT intensity (Boi1, P38041)	SPOT intensity (Rvs167, P39743)	SPOT intensity (Bzz1-1, P38822)	SPOT intensity (Bud14, P27637)	SPOT intensity (Pin3, Q06449)	SPOT intensity (Cdc25, P04821)	SPOT intensity (Nbp2, Q12163)	SPOT intensity (Lsb3, P43603)	SPOT intensity (Hse1, P38753)	SPOT intensity (Sla1-2, P32790)	SPOT intensity (Sla1-3, P32790)	SPOT intensity (GST)	SPOT intensity (Pex13, P80667)	SPOT intensity (Bem1-1, P29366)	SPOT intensity (Lsb1, P53281)	SPOT intensity (Lsb4, P32793)	SPOT intensity (Myo3, P36006)	SPOT intensity (Hof1, Q05080)	SPOT intensity (Myo5, Q04439)	also measured
HGKRRAPLLLAKLDV	0	0	0	0	14	9	7	1	0	0	0	1	1	5	0	0	4	5	0	0	SPOT intensity (Boi2, P39969): 0; SPOT intensity (Cyk3, Q07533): 0; SPOT intensity (Bbc1, P47068): 17; SPOT intensity (Abp1, P15891): 79; SPOT intensity (Fus1, P11710): 0; SPOT intensity (Sho1, P40073): 85; SPOT intensity (Bzz1-2, P38822): 1
VLRFLGFPLPIFEKG	2	1	0	0	17	3	28	41	0	6	0	0	0	4	0	0	0	1	4	0	SPOT intensity (Boi2, P39969): 1; SPOT intensity (Cyk3, Q07533): 7; SPOT intensity (Bbc1, P47068): 30; SPOT intensity (Abp1, P15891): 19; SPOT intensity (Fus1, P11710): 78; SPOT intensity (Sho1, P40073): 43; SPOT intensity (Bzz1-2, P38822): 0
LLLLFVPDSPYDPAI	0	1	0	0	3	0	0	1	0	0	0	2	1	0	0	0	0	0	0	0	SPOT intensity (Boi2, P39969): 0; SPOT intensity (Cyk3, Q07533): 0; SPOT intensity (Bbc1, P47068): 0; SPOT intensity (Abp1, P15891): 0; SPOT intensity (Fus1, P11710): 1; SPOT intensity (Sho1, P40073): 0; SPOT intensity (Bzz1-2, P38822): 0
GERSRPLVISILSSA	0	2	0	3	14	26	16	2	0	0	1	0	0	39	0	0	4	5	0	0	SPOT intensity (Boi2, P39969): 0; SPOT intensity (Cyk3, Q07533): 0; SPOT intensity (Bbc1, P47068): 0; SPOT intensity (Abp1, P15891): 16; SPOT intensity (Fus1, P11710): 3; SPOT intensity (Sho1, P40073): 38; SPOT intensity (Bzz1-2, P38822): 1
LTRRFPFLFPFDTRM	61	6	0	3	21	18	21	16	0	126	1	129	0	16	1	0	4	4	116	0	SPOT intensity (Boi2, P39969): 0; SPOT intensity (Cyk3, Q07533): 3; SPOT intensity (Bbc1, P47068): 69; SPOT intensity (Abp1, P15891): 18; SPOT intensity (Fus1, P11710): 100; SPOT intensity (Sho1, P40073): 57; SPOT intensity (Bzz1-2, P38822): 3
RLSFFFPLDPAYIRN	43	6	0	0	12	13	28	21	0	91	0	113	1	21	0	0	0	4	48	0	SPOT intensity (Boi2, P39969): 0; SPOT intensity (Cyk3, Q07533): 1; SPOT intensity (Bbc1, P47068): 12; SPOT intensity (Abp1, P15891): 28; SPOT intensity (Fus1, P11710): 159; SPOT intensity (Sho1, P40073): 68; SPOT intensity (Bzz1-2, P38822): 3
